We go through 9 substances from patent US20250179143A1, “SYSTEMS AND METHODS FOR CHAPERONE-MEDIATED LIGAND EXCHANGE ON MHC-I AND MHC-RELATED MOLECULES USING CHICKEN TAPBPR” (priority 2022, published 2025).

The target of experiment [1] is MR1 C262S loaded with acetyl-6-formylpterin (Ac-6-FP) (UniProt Q95460). Nature of the experiment: SPR, TAPBPR-biotin on streptavidin chip, Ac-6-FP loaded MR1 C262S as analyte.
Experiment [2] deals with 1G4 TCR. Nature of the experiment: flow cytometry; PE tetramer (1 µg/mL) on human T cells transduced with the 1G4 TCR; tetramer from TAPBPR-catalysed peptide exchange; no percent sign printed.
Experiment [3] deals with 1G4 TCR. Briefly: flow cytometry; PE tetramer (1 µg/mL) on human T cells transduced with the 1G4 TCR; tetramer from conventional refolding; no percent sign printed.
The target in experiment [4] is MR1 C262S loaded with acetyl-6-formylpterin (Ac-6-FP) (UniProt Q95460). Briefly: SPR; MR1 C262S/Ac-6-FP, 10 to 100 µM, over hTAPBPR^RQ-biotin on a streptavidin chip; steady-state fit in the inset.
Experiment [5] deals with peptide-deficient (empty) HLA-A*01:01/hb2m (human). Nature of the experiment: SPR, TAPBPR-biotin on streptavidin chip, UV-irradiated (empty) HLA as analyte.
The target in experiment [6] is peptide-deficient (empty) HLA-B*37:01/hb2m (human). Described as above.
Experiment [7] deals with peptide-deficient (empty) HLA-A*30:01/hb2m (human). The experiment is described as above.
The target of experiment [8] is peptide-deficient (empty) HLA-B*08:01/hb2m (human) (UniProt P01889). Described as above.
Experiment [9] has as its target peptide-deficient (empty) HLA-G*01:01/hb2m (human). Described as above.
Experiment [10] concerns the target peptide-deficient (empty) HLA-A*68:02/hb2m (human). The description is as above.
Experiment [11] concerns the target peptide-deficient (empty) HLA-A*11:01/hb2m (human). Described as above.
Experiment [12] concerns the target peptide-deficient (empty) HLA-A*24:02/hb2m (human). Described as above.
Experiment [13] addresses peptide-deficient (empty) HLA-A*02:01/hb2m (human). The experiment is described as above.
The target of experiment [14] is peptide-deficient (empty) HLA-A*29:02/hb2m (human). The description is as above.
Experiment [15] concerns the target HLA-A*01:01/hb2m/STAPGJLEY (peptide-loaded) (human). Briefly: cell-based or functional assay.
Experiment [16] deals with HLA-F*01:01/hb2m/LILRWE(bF)D (human). Briefly: SPR; HLA-F*01:01/hb2m/LILRWE(bF)D, 0.0625 to 2 µM, over chTAPBPR-biotin on a streptavidin chip; kinetic fit.
The target of experiment [17] is HLA-A*24:02/hb2m/VYGJVRACL (peptide-loaded) (human). Briefly: SPR; HLA-A*24:02/[..], 0.1 to 10 µM, over chicken TAPBPR-biotin on a streptavidin chip; kinetic fit.
Experiment [18] addresses HLA-B*08:01/hb2m/FLRGRAJGL (peptide-loaded) (human).
In experiment [19] the target is HLA-A*24:02/hb2m/VYGJVRACL (peptide-loaded) (human). Briefly: SPR, TAPBPR-biotin on streptavidin chip, peptide-loaded HLA as analyte.
In experiment [20] the target is HLA-A*29:02/hb2m/VFAQVKQJY (peptide-loaded) (human). The description is as above.
Experiment [21] addresses MR1 C262S loaded with acetyl-6-formylpterin (Ac-6-FP) (UniProt Q95460). Nature of the experiment: SPR; MR1 C262S/Ac-6-FP, 10 to 100 µM, over hTAPBPR^KRQ-biotin on a streptavidin chip; steady-state fit in the inset.
Experiment [22] has as its target 1G4 TCR. Briefly: flow cytometry; PE tetramer (1 µg/mL) on human T cells transduced with the 1G4 TCR; negative control; no percent sign printed.

“human TAPBPR luminal domain (hTAPBPR) (from UniProt Q9BX59 22-405)” showed a Kd in experiment [1] of 98.7 µM.
In the experiment with 1G4 TCR [2], “Exchanged A2/W5A (NY-ESO-1) (from UniProt A*02:01) (peptide-MHC)” registered a tet+ (share of events in the tetramer-positive live gate) of 2.18.
As to “NY-ESO-1 (HLA-A*02:01/… tetramer) (peptide-MHC)”, the tet+ (share of events in the tetramer-positive live gate) in the experiment with 1G4 TCR [3] was 78.7; in the experiment with 1G4 TCR [2], 71.4.
For the substance “hTAPBPR^RQ (K211R, R270Q) (from UniProt Q9BX59 22-405)”, the Kd in experiment [4] was found to be 49.5 µM.
“Exchanged A2/M4A (NY-ESO-1) (from UniProt A*02:01) (peptide-MHC)” came in with a tet+ (share of events in the tetramer-positive live gate) with 1G4 TCR [2] of 38.7.
For “chicken TAPBPR luminal domain (chTAPBPR)”, the Kd turned out to be 1.46 µM in [5]; 2.19 µM in [6]; 1.28 µM in experiment [7]; 1.89 µM in experiment [8]; 11.2 µM in experiment [9]; 0.43 µM in experiment [10]. The Kd in [11] came to 0.91 µM; in experiment [12] it was 1.68 µM; in [13] it was 2.96 µM; in [14] it was 0.29 µM; in experiment [16], 0.76 µM; in [17], 0.37 µM. The Kd in experiment [19] was determined as 17.4 µM; in experiment [20], 0.17 µM; in experiment [1] it was 19.2 µM. In [15], this substance showed a kapp of fluorescent peptide binding at 5 uM chaperone (FP) of 0.00017 s⁻¹. Also, the -TΔS in [18] is -48.1 kJ/mol. The same substance showed a ΔG in [18] of -18.8 kJ/mol. The ΔH in experiment [18] came to 29.3 kJ/mol.
Turning to “hTAPBPR^KRQ (R105K, K211R, R270Q) (from UniProt Q9BX59 22-405)”, in experiment [21], the dissociation constant (Kd) was found to be 62 µM.
The substance “Exchanged S1A (NY-ESO-1) (from UniProt A*02:01) (peptide-MHC)” yielded a tet+ (share of events in the tetramer-positive live gate) with 1G4 TCR [2] of 72.1.
As to “Refolded Rubella (from UniProt A*02:01) (peptide-MHC)”, in the experiment with 1G4 TCR [22], the tet+ (share of events in the tetramer-positive live gate) turned out to be 0.75.
